From publication PMC7144946 come the findings set out here.

As usually defined, the Kd is the concentration at which binding is half-saturated. Low values mean a tighter complex, high ones a looser complex.

Common to all, as to test: SPR
Data set [1] addresses A. fumigatus CCAAT-binding complex (CBC) consisting of HapB(230–299), HapC(40–137) and HapE(47–164) (Aspergillus fumigatus).
The target in the next data set is T1, Yap1 bZIP (Aspergillus fumigatus, UniProt Q4WMH0 135-234).
T1 sequence: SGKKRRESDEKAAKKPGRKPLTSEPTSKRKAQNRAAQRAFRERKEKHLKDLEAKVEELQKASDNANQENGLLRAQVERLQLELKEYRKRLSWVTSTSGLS

A further data set deals with HapX dCBC-BD (Aspergillus fumigatus, UniProt Q4WER3 59-158).

Regarding “A. fumigatus HapX(24–158) (from UniProt Q4WER3 24-158) (domain or fragment)”, in data set [1], the apparent KD with cccA-369 promoter DNA (HapX on preformed CBC:DNA) worked out at 0.4 nM, the apparent KD with cox6 promoter DNA (HapX on preformed CBC:DNA) came out at 3.6 µM and the apparent KD with hemH promoter DNA (HapX on preformed CBC:DNA) stood at 121 nM.

B1: cyp51A-293 (dsDNA)
DNA 1: GCTGAGCCGAATGAAAGTTGCCTAATTACTAAGGTGT
DNA 2: ACACCTTAGTAATTAGGCAACTTTCATTCGGCTCAGC
B1 gave a Kd with Yap1 bZIP of 13 nM.

B2: cccA-369 (dsDNA)
DNA 1: AAATCCACCAATCAACGCCTCCGTGATTGTCAGCAAT
DNA 2: ATTGCTGACAATCACGGAGGCGTTGATTGGTGGATTT
B2: in the data set with Yap1 bZIP, the Kd was 50 nM. In the data set with HapX dCBC-BD, this molecule returned a binding signal of 3 fold increase vs HapX.
